# Test results as given in patent publication US20260139066A1 (VRIJE UNIVERSITEIT BRUSSEL, published 2026).
# T1: canine urokinase plasminogen activator receptor, recombinant protein (canine)
# T1 construct: Recombinant c uPAR produced by VIB (Ghent); also called c uPAR; canine uPAR
# T1 chain: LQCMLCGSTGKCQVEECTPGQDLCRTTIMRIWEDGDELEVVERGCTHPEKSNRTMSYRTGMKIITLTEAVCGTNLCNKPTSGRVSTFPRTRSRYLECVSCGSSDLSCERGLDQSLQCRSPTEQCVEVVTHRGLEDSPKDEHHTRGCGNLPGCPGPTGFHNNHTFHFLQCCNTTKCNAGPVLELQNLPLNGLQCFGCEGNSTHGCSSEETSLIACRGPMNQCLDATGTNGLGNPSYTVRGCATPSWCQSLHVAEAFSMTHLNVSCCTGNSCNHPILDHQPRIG
# How the values were obtained:
# [1] = molecular target: T2, human urokinase plasminogen activator receptor, recombinant extracellular domain protein (human, UniProt Q03405 23-303); assay: SPR (Biacore T200) kinetics, purified sdAb 150-0.62 nM, h uPAR immobilised on CM5, 1:1 fit
# T2 construct: Bought recombinant protein (Sino Biological); also called h uPAR; human uPAR
# T2 sequence (Q03405 23-303 limits assumed): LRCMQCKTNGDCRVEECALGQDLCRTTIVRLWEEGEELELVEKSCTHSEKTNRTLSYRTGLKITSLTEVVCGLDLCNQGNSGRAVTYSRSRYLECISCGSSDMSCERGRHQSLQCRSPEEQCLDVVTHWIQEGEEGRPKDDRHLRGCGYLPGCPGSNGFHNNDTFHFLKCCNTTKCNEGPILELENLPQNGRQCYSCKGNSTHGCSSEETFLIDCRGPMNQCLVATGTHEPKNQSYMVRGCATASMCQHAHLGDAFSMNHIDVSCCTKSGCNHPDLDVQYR
# Experimental: (§1) The thermal stability of the sdAbs was determined via a thermal shift assay. Melting temperatures (Tₘ) ranged between 59.5 and 73.6° C. (Table 1). The kinetic parameters (kₐ, Kd, KD) of the purified sdAbs were evaluated via SPR on respectively h and c uPAR recombinant protein (FIG. 10, Table 1). Contrarily to the BE-ELISA results, no h/m or h/m/c cross-reactive sdAbs were identified. […] Finally, their binding to cell-membrane-expressed uPAR was investigated via flow cytometry using 1) h or c uPAR lentivirally transduced HEK293T cells and 2) U87 or HT29 cells with natural h expression. SdAbs showing a significant shift in binding compared to the control conditions (i.e., binding of the non-targeting sdAb R3B23) were further taken into consideration (FIG. 2). Based on the combined results in terms of production yield, stability, binding characteristics, and cross-reactivity, 2 anti-h uPAR (sdAb 3 and 4) and 4 cross-reactive h/c uPAR (sdAb 15, 16, 17 and 18, having respectively SEQ ID NOs: 2, 20, 21, 22) sdAbs were selected for further in vivo evaluation.
# (§2) SPR was performed using a Biacore device (Biacore T200; Cytiva). First, the CM5 sensor chip (Biacore, Series S Sensor Chip CM5; Cytiva) was activated with 1-ethyl-3-(3-dimethylaminopropyl) carbodiimide/N-hydroxysuccinimide (EDC/NHS; Amine Coupling Kit; Cytiva). Subsequently, h, m or c uPAR recombinant proteins (5 μg/mL) were immobilized on separate chips at pH 5. The SPR measurements were done at 25° C. in HEPES buffered saline (HBS; Cytiva) as a running buffer, with a flow rate of 30 μL/min. For off-rate screening, the contact time was set at 120 s, dissociation time at 600 s, and the runs were replicated 5 times. […] The association step was allowed for 180 s, the dissociation step for 600 s. For both studies, regeneration of 20 s at 30 μL/min using 0.1 M glycine at pH 2.5 followed by a stabilization period of 60 s, was performed.
# [2] = molecular target: T1, canine urokinase plasminogen activator …; assay: SPR (Biacore T200) off-rate screening of bacterial extract, c uPAR immobilised on CM5; column koff
# Experimental: as §2
# [3] = molecular target: T2, human urokinase plasminogen activator …; assay: SPR (Biacore T200) kinetics, purified sdAb 150-0.62 nM, h uPAR immobilised on CM5, 1:1 fit; column kd
# Experimental: as §1, §2
# [4] = molecular target: T1, canine urokinase plasminogen activator …; assay: SPR (Biacore T200) kinetics, purified sdAb 150-0.62 nM, c uPAR immobilised on CM5, 1:1 fit; column kd
# Experimental: as §1, §2
# [5] = molecular target: T1, canine urokinase plasminogen activator …; assay: SPR (Biacore T200) kinetics, purified sdAb 150-0.62 nM, c uPAR immobilised on CM5, kd/ka
# Experimental: as §1, §2
# [6] = molecular target: T1, canine urokinase plasminogen activator …; assay: SPR (Biacore T200) kinetics, purified sdAb 150-0.62 nM, c uPAR immobilised on CM5, 1:1 fit
# Experimental: as §1, §2
# [7] = molecular target: T2, human urokinase plasminogen activator …; assay: SPR (Biacore T200) kinetics, purified sdAb 150-0.62 nM, h uPAR immobilised on CM5, kd/ka
# Experimental: as §1, §2
# [8] = molecular target: T2, human urokinase plasminogen activator …; assay: SPR (Biacore T200) off-rate screening of bacterial extract, h uPAR immobilised on CM5; column koff
# Experimental: as §2
kon [1] [M⁻¹ s⁻¹],koff [2] [s⁻¹],koff [3] [s⁻¹],koff [4] [s⁻¹],Kd [5] [nM],kon [6] [M⁻¹ s⁻¹],Kd [7] [nM],koff [8] [s⁻¹],Binder
1.6e+06,0.0065,0.0034,0.002,12,170000,2.1,0.0042,"sdAb 15 (clone 5A4) with carboxy-terminal hexahistidine tag (VHH, Lead compound; C-terminal 6His for purified-protein SPR; koff screen used bacterial extracts of the pMECS-GG construct; also called sdAb15.6His; Nr 15) VHH: QVQLQESGGGWVQPGGSLRLSCAASGFTLDYYGIGWFRQAPGKEREGVSCISSSDGSTYYADSVKGRFTISRDNAKNTVYLQMNSLKPEDTAVYYCATRGASCYYTGSYSLGYDYWGQGTQVTVSS"
500000,0.01,0.0015,0.0031,36,86000,3,0.0027,"sdAb 16 (clone 5A5) with carboxy-terminal hexahistidine tag (VHH, C-terminal 6His for purified-protein SPR; koff screen used bacterial extracts; also called Nr 16) VHH: QVQLQESGGGLVQPGGSLRLSCAISGFTLDYYGIGWFRQAPGKEREGVSCISSSDGSTYYADSVKGRFTISRDNAKNTVYLQMNSLKPEDTAVYYCATRGASCYYSGSYSLGYDYWGQGTQVTVSS"
840000,0.0092,0.004,0.0035,34,100000,4.7,0.0031,"sdAb 18 (clone 5H2) with carboxy-terminal hexahistidine tag (VHH, C-terminal 6His for purified-protein SPR; koff screen used bacterial extracts; also called Nr 18) VHH: QVQLQESGGGLAQPGGSLRLSCTASGFTSDYYGIGWFRQAPGKEREGVSCISSSDGSTYYADSVKGRFTISRDNAKNTVYLQMNSLKPEDTAVYYCATRGASCYYTGSYSLGYDYWGQGTQVTVSS"
860000,0.0073,0.0019,0.0019,17,120000,2.3,0.0026,"sdAb 17 (clone 5B7) with carboxy-terminal hexahistidine tag (VHH, C-terminal 6His for purified-protein SPR; koff screen used bacterial extracts; also called Nr 17) VHH: QVQLQESGGGLVQPGGSLRLSCAVSGSTLEYYGIGWFRQAPGKEREGVSCISSSDGSTYYADSVKGRFTISRDNAKNTVYLQMNSLKPEDTAVYYCATRGASCYYTGSYSLGYDYWGQGTQVTVSS"
